Measurements published in paper PMC8794255, “Small molecule inhibitor of Igf2bp1 represses Kras and a pro-oncogenic phenotype in cancer cells” (RNA Biology, 2021).

Tests used:
Igf2bp1 (human) [1] = target: Igf2bp1 (human) (UniProt Q9NZI8); test: competition; conditions: MST/EMSA: 10 mM Tris pH 7.5, 100 mM NaCl, 0.1 mM EDTA, IGEPAL, tRNA, heparin, 0.5-2 mM DTT, room temperature (MST protein in PBST mixed 1:1); FP: 10 mM Tris pH …
Igf2bp1 (human) [2] = test: MST; conditions: MST/EMSA: 10 mM Tris pH 7.5, 100 mM NaCl, 0.1 mM EDTA, IGEPAL, tRNA, heparin, 0.5-2 mM DTT, room temperature (MST protein in PBST mixed 1:1), FP: 10 mM Tris pH …
Igf2bp1 KH34 (human) = test: MST; conditions: MST/EMSA: 10 mM Tris pH 7.5, 100 mM NaCl, 0.1 mM EDTA, IGEPAL, tRNA, heparin, 0.5-2 mM DTT, room temperature (MST protein in PBST mixed 1:1); FP: 10 mM Tris pH …

Sequence of Igf2bp1 (human) (UniProt Q9NZI8) (Q9NZI8 whole entry): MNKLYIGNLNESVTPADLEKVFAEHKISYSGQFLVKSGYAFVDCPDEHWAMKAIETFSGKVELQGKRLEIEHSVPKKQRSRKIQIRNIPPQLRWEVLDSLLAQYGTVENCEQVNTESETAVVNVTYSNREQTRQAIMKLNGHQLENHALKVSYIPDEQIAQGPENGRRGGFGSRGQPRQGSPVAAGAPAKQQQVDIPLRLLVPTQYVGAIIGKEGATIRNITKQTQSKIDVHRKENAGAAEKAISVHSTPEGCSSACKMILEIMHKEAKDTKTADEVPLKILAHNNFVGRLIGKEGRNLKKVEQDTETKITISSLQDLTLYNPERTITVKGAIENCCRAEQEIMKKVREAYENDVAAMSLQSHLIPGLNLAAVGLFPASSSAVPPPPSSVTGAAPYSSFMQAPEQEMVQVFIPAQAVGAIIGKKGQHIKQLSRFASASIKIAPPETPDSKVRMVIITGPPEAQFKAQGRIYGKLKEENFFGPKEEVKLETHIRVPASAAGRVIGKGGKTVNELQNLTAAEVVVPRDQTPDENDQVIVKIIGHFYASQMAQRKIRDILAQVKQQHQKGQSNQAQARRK

Row | Substance | binding (Igf2bp1 (human) [1]) | Kd (Igf2bp1 (human) [2]; 50 uM 7773) [nM] | Kd (Igf2bp1 (human) [2]; 100 uM 7773) [nM] | Kd (Igf2bp1 (human) [2]) [nM] | Kd (Igf2bp1 (human) [2]; no compound) [nM] | Kd (Igf2bp1 KH34 (human)) [nM]
1 | GGGUGAGGAGUACAGUGCAAUGAGGGACCAGUACAUGAGGACUGGGGAGGGCUUUCUUUGUGUAUUUGCCAUAAAUAAUACUAAAUCAUUUGAAGAUAUUCACCAUUAUAGAGAACAAAUUAAAAGAGUUAAGGACUCUGAAGAUGUACCUAUGGUCCUAGUAGGAAAUAAAUGUGAUUUGCCUUCUAGAACAGUAGACACAA [Kras 2 RNA] | binds more weakly |  |  |  |  | 
2 | Kras 6 RNA |  | 63 | 120 | 20 | 56 | 200
